Experimental data from US9029508 (dated 2015).
Values joined by “and” are separate entries in the source; they are usually repeats but may differ in a detail not shown here. Identical values can stand only once. Like-named read-outs stand apart in the source and are kept apart here. One block for each binder: values may come before it.

How the values were obtained:
CD19 = molecular target: T1, CD19 (human, UniProt P15391); assay: ELISA
T1 chain: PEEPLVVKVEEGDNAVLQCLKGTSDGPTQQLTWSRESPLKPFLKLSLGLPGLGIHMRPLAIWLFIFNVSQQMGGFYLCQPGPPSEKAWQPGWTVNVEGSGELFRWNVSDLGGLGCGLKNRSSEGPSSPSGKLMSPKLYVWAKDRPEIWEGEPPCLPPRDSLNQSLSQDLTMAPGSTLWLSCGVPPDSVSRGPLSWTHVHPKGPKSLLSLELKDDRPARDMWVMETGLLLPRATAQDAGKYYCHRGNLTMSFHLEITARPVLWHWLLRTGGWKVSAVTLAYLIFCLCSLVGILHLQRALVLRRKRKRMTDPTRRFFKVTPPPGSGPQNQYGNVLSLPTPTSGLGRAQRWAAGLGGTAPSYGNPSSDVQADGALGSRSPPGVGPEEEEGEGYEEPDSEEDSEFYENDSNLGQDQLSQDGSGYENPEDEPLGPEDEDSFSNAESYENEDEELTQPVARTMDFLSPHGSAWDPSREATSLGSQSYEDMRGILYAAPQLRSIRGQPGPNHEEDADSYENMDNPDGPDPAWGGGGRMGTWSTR

ErbB3 [1] = molecular target: T2, ErbB3 (human, UniProt P21860); assay: SPR
ErbB3 [2] = molecular target: T2, ErbB3; assay: ELISA
ErbB3 [3] = molecular target: T2, ErbB3; assay: ELISA; remark: listed apart in the source
CD40 = CD40 (human, UniProt P25942); assay: ELISA
IGF1R [4] = molecular target: T3, IGF1R (human, UniProt P08069); assay: ELISA
IGF1R [5] = molecular target: T3, IGF1R; assay: ELISA; remark: listed apart in the source
IGF1R [6] = molecular target: T3, IGF1R; assay: SPR
IGF1 [7] = molecular target: T4, IGF1 (human, UniProt P05019); assay: ELISA
IGF1 [8] = molecular target: T4, IGF1; assay: SPR
IGF2 [9] = molecular target: T5, IGF2 (human, UniProt P01344); assay: SPR
IGF1 [10] = molecular target: T4, IGF1; assay: ELISA; remark: listed apart in the source
IGF2 [11] = molecular target: T5, IGF2; assay: ELISA
IGF2 [12] = molecular target: T5, IGF2; assay: ELISA; remark: listed apart in the source
DLL4 [13] = molecular target: T6, DLL4 (human, UniProt Q9NR61); assay: ELISA
DLL4 [14] = molecular target: T6, DLL4; assay: competition
DLL4 [15] = molecular target: T6, DLL4; assay: SPR

T6 sequence (Q9NR61 27-524): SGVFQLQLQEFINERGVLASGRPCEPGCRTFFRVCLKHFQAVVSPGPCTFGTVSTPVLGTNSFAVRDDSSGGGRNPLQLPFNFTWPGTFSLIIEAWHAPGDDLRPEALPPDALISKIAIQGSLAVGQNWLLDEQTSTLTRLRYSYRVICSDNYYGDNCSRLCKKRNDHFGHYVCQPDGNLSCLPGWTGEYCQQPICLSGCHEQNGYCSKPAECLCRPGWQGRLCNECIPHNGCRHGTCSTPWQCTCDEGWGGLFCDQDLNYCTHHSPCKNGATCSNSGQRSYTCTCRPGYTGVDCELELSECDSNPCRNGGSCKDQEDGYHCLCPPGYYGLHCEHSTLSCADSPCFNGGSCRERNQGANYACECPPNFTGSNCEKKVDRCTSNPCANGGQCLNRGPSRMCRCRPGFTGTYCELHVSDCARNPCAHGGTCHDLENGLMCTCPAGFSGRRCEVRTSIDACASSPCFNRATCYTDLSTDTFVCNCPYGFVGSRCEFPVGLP
Chain of CD40 (P25942 21-193): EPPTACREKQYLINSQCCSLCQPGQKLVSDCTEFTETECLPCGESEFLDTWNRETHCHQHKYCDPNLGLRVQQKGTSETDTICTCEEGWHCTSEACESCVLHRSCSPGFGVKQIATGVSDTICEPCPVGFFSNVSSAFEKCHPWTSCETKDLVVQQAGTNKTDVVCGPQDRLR

B2: DVD013 CD19 arm (antibody, V domains shown)
VH: QVQLQQSGAELVRPGSSVKISCKASGYAFSSYWMNWVKQRPGQGLEWIGQIWPGDGDTNYNGKFKGKATLTADESSSTAYMQLSSLASEDSAVYFCARRETTTVGRYYYAMDYWGQGTSVTVSS
VL: DILLTQTPASLAVSLGQRATISCKASQSVDYDGDSYLNWYQQIPGQPPKLLIYDASNLVSGIPPRFSGSGSGTDFTLNIHPVEKVDAATYHCQQSTEDPWTFGGGTKLEIKR
modifications: DVD-Ig inner
EC50 (CD19): 7.29 nM

B3: DVD001 CD19 arm (antibody, V domains shown)
VH: B2 VH
VL: B2 VL
modifications: DVD-Ig inner
EC50 (CD19): 12.9 nM

B4: DVD014 CD19 arm (antibody, V domains shown)
VH: B2 VH
VL: B2 VL
modifications: DVD-Ig outer
EC50 (CD19): 0.12 nM

B5: DVD299 ErbB3 arm (antibody, V domains shown)
VH: QVQLQQWGAGLLKPSETLSLTCAVYGGSFSGYYWSWIRQPPGKGLEWIGEINHSGSTNYNPSLKSRVTISVETSKNQFSLKLSSVTAADTAVYYCARDKWTWYFDLWGRGTLVTVSS
VL: not shown
modifications: DVD-Ig outer
Kd (ErbB3 [1]): 0.82 nM
EC50 (ErbB3 [2]): 1.96 nM

B10: DVD031 IGF1R arm (antibody, V domains shown)
VH: EVQLLESGGGLVQPGGSLRLSCTASGFTFSSYAMNWVRQAPGKGLEWVSAISGSGGTTFYADSVKGRFTISRDNSRTTLYLQMNSLRAEDTAVYYCAKDLGWSDSYYYYYGMDVWGQGTTVTVSS
VL: DIQMTQFPSSLSASVGDRVTITCRASQGIRNDLGWYQQKPGKAPKRLIYAASRLHRGVPSRFSGSGSGTEFTLTISSLQPEDFATYYCLQHNSYPCSFGQGTKLEIKR
modifications: DVD-Ig inner
EC50 (IGF1R [4]): 171 nM
EC50 (IGF1R [5]): 171 nM

B11: DVD032 IGF1R arm (antibody, V domains shown)
VH: B10 VH
VL: B10 VL
modifications: DVD-Ig outer
EC50 (IGF1R [4]): 0.2 nM
Kd (IGF1R [6]): 0.829 nM
EC50 (IGF1R [5]): 0.16 nM

B15: AB063 (antibody, V domains shown)
VH: EVQLVESGGGLVQPGGSLRLSCAASGFTFSIYSMNWVRQAPGKGLEWVSYISSSSSTIYYADSVKGRFTISRDNAKNSLYLQMNSLRDEDTAVYYCARDRGDFDAFDIWGQGTMVTVSS
VL: DIQMTQSPSSLSASVGDRVTITCQASQDITNYLNWYQQKPGKAPKLLIYDASNLETGVPSRFSGSGSGTDFTFTISSLQPEDIATYNCQQCENFPITFGQGTRLEIKR
Kd (ErbB3 [1]): 0.15 nM
EC50 (ErbB3 [2]): 0.28 nM
EC50 (ErbB3 [3]): 0.67 nM

B16: DVD306 ErbB3 arm (antibody, V domains shown)
VH: B15 VH
VL: B15 VL
modifications: DVD-Ig inner
EC50 (ErbB3 [2]): 151 nM
EC50 (ErbB3 [3]): > 10 nM

Now from value to binder:

EC50 (CD19): 0.07 nM
B1: DVD002 CD19 arm (antibody, V domains shown)
VH: B2 VH
VL: B2 VL
modifications: DVD-Ig outer

Kd (ErbB3 [1]): 1.36 nM
EC50 (ErbB3 [2]): 1.93 nM
EC50 (ErbB3 [3]): 0.26 nM
B6: AB062 (antibody, V domains shown)
VH: B5 VH
VL: not shown

EC50 (CD40): 0.82 nM
B7: DVD010 CD40 arm (antibody, V domains shown)
VH: QVQLVESGGGVVQPGRSLRLSCAASGFTFSSYGMHWVRQAPGKGLEWVAVISYEESNRYHADSVKGRFTISRDNSKITLYLQMNSLRTEDTAVYYCARDGGIAAPGPDYWGQGTLVTVSS
VL: DIVMTQSPLSLTVTPGEPASISCRSSQSLLYSNGYNYLDWYLQKPGQSPQVLISLGSNRASGVPDRFSGSGSGTDFTLKISRVEAEDVGVYYCMQARQTPFTFGPGTKVDIRR
modifications: DVD-Ig outer

EC50 (CD40): 3.55 nM
B8: DVD009 CD40 arm (antibody, V domains shown)
VH: B7 VH
VL: B7 VL
modifications: DVD-Ig inner

EC50 (CD40): 0.99 nM
B9: AB009 (antibody, V domains shown)
VH: B7 VH
VL: B7 VL

EC50 (IGF1R [4]): 0.3 nM
Kd (IGF1R [6]): 0.778 nM
EC50 (IGF1R [5]): 0.26 nM
B12: DVD022 IGF1R arm (antibody, V domains shown)
VH: B10 VH
VL: B10 VL
modifications: DVD-Ig outer

EC50 (IGF1R [4]): 135 nM
EC50 (IGF1R [5]): 135 nM
B13: DVD021 IGF1R arm (antibody, V domains shown)
VH: B10 VH
VL: B10 VL
modifications: DVD-Ig inner

EC50 (IGF1R [4]): 0.3 nM
Kd (IGF1R [6]): 0.848 nM
EC50 (IGF1R [5]): 0.28 nM
B14: AB011 (antibody, V domains shown)
VH: B10 VH
VL: B10 VL

Kd (ErbB3 [1]): 0.0603 nM
EC50 (ErbB3 [2]): 0.44 nM
EC50 (ErbB3 [3]): 1.16 nM
B17: DVD305 ErbB3 arm (antibody, V domains shown)
VH: B15 VH
VL: B15 VL
modifications: DVD-Ig outer

EC50 (IGF1 [7]): 4.8 nM
Kd (IGF1 [8]): 0.388 nM
Kd (IGF2 [9]): < 0.299 pM and 0.423 pM
EC50 (IGF1 [10]): 4.77 nM
EC50 (IGF2 [11]): 18.1 nM and 10 nM
EC50 (IGF2 [12]): 10 nM and 18.1 nM
B18: AB010 (antibody, V domains shown)
VH: QVQLVQSGAEVKKPGASVKVSCKASGYTFTSYDINWVRQATGQGLEWMGWMNPNSGNTGYAQKFQGRVTMTRNTSISTAYMELSSLRSEDTAVYYCARDPYYYYYGMDVWGQGTTVTVSS
VL: QSVLTQPPSVSAAPGQKVTISCSGSSSNIENNHVSWYQQLPGTAPKLLIYDNNKRPSGIPDRFSGSKSGTSATLGITGLQTGDEADYYCETWDTSLSAGRVFGGGTKLTVLG

EC50 (IGF1 [7]): 229 nM
Kd (IGF1 [8]): 6.36 nM
Kd (IGF2 [9]): 302 pM
EC50 (IGF1 [10]): 229 nM
EC50 (IGF2 [11]): 206 nM
EC50 (IGF2 [12]): 206 nM
B19: DVD029 IGF1,2 arm (antibody, V domains shown)
VH: B18 VH
VL: B18 VL
modifications: DVD-Ig inner

EC50 (IGF1 [7]): 1.8 nM
Kd (IGF1 [8]): 0.292 nM
Kd (IGF2 [9]): 2.34 pM
EC50 (IGF1 [10]): 1.75 nM
EC50 (IGF2 [11]): 5.49 nM
EC50 (IGF2 [12]): 5.5 nM
B20: DVD030 IGF1,2 arm (antibody, V domains shown)
VH: B18 VH
VL: B18 VL
modifications: DVD-Ig outer

EC50 (DLL4 [13]): 0.28 nM
IC50 (DLL4 [14]): 0.38 nM
Kd (DLL4 [15]): 0.234 nM
B21: DVD257 DLL4 arm (antibody)
chain 1: EVQLVESGGGLVQPGGSLRLSCAASGFTFTDNWISWVRQAPGKGLEWVGYISPNSGFTYYADSVKGRFTISADTSKNTAYLQMNSLRAEDTAVYYCARDNFGGYFDYWGQGTLVTVSS
chain 2: DIQMTQSPSSLSASVGDRVTITCRASQDVSTAVAWYQQKPGKAPKLLIYSASFLYSGVPSRFSGSGSGTDFTLTISSLQPEDFATTYYCQQSYTGTVTFGQGTKVEIKR
modifications: DVD-Ig outer
